# Test results: patent US20160009804A1
# Biological target: vascular endothelial growth factor receptor-1 (VEGFR-1) (human) (UniProt P17948)
# Test: cell-based or functional assay
# Sequence of UniProt P17948 (P17948 27-1338): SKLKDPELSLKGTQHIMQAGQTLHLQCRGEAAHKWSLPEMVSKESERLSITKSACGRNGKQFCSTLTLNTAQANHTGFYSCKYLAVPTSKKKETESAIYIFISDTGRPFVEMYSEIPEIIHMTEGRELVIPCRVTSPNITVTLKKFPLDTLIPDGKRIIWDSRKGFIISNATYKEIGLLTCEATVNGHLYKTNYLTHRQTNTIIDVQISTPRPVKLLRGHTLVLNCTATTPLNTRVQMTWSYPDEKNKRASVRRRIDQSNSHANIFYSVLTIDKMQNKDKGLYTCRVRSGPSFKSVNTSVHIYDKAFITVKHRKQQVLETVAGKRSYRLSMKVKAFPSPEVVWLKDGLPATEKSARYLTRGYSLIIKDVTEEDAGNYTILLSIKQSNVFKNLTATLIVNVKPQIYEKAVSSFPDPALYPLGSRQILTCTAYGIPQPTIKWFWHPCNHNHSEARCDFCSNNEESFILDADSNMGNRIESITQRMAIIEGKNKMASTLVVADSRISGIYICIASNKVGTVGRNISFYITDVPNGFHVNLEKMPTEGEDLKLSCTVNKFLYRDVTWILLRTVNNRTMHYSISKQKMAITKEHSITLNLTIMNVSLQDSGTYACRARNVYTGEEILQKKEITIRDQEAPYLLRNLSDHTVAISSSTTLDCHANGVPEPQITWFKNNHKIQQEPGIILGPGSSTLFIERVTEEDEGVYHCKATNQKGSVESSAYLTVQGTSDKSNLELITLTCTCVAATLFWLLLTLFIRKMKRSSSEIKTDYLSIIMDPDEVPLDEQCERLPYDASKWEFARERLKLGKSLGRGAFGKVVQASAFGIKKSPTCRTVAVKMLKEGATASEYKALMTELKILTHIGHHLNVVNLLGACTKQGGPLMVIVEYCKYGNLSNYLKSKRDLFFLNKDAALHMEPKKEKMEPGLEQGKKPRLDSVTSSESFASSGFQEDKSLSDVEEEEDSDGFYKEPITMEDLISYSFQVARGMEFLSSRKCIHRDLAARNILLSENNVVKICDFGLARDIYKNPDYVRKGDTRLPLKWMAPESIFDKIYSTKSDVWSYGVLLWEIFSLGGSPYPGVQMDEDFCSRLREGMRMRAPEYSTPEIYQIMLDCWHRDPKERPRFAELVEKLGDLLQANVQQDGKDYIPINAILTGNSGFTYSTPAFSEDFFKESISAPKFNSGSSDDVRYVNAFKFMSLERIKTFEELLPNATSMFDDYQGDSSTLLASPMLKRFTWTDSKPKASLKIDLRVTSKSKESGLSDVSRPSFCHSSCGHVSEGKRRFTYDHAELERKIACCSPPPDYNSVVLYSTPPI
"VEGF-induced CD144 expression (% of cells), untreated human melanoma cells [%]","VEGF-induced tube formation, average tube length, untreated [µm]","VEGF-induced tube formation, numbers of tubes formed/microscopy field, untreated (tubes/microscopy field)","VEGF-induced CD144 expression (% of cells), isotype control mAb-treated human melanoma cells [%]","VEGF-induced tube formation, average tube length, isotype control mAb-treated [µm]","VEGF-induced tube formation, numbers of tubes formed/microscopy field, isotype control mAb-treated (tubes/microscopy field)",Substance
64,92.1,99,,,,vascular endothelial growth factor (VEGF) (from UniProt P15692 27-191) (ligand)
,,,57,86.5,76.7,isotype control mAb (antibody)
